Source: US7470669B2, “Isolated polypeptide comprising a leptin fragment” (Serono Genetics Institute, S.A., priority 1999, dated 2008)

Molecular target: T1, LSR α (Homo sapiens, UniProt Q86X29)
T1 construct: The full-length LSR α, α′, and β clones were reconstructed in pTracer-CMV2 vector; expressed in transfected cells; host or cells: CHO-K1, transient (Fugene), pTracer-CMV2
T1 sequence (Q86X29 1-649): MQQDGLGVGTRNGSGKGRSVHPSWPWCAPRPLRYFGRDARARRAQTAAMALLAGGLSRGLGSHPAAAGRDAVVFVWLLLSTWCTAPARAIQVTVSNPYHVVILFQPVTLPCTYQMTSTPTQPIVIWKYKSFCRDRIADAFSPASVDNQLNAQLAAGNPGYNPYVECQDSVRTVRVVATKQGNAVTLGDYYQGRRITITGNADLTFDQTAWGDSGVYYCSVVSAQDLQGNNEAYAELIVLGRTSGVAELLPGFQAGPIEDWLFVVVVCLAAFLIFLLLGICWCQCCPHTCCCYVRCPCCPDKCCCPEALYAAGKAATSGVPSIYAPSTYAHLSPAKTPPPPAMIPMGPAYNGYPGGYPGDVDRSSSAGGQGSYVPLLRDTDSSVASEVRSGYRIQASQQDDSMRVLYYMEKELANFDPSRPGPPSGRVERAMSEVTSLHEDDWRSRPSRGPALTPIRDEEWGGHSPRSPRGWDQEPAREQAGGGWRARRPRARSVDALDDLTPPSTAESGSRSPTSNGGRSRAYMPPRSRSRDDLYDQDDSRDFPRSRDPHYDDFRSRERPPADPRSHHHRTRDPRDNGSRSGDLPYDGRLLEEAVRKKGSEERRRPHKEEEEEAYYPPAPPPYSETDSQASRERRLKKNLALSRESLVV
Assay: 125I-leptin binding in CHO-K1 cells transiently transfected with LSR α
Type: cell-based
Conditions: transient transfection with LSR α plasmid; 10 ng/mL 125I-leptin
Description: FIGS. 3A, 3B, 3C, and 3D show the effect of LSR subunit transfection on leptin binding and degradation in CHO-K1 cells. For FIG. 3A, CHO-K1 cells were transfected with increasing concentrations of the α, (□), α′ (▪) or β (◯) LSR plasmid, or vector alone (●) using Fugene transfection reagent. After 48 h, the cells were washed once in PBS and incubated at 37° C. for 2 h with 10 ng/mL of ^125I-leptin in DMEM containing 0.2% (w/v) BSA, 2 mM CaCl2 and 5 mM HEPES, pH 7.4 (Buffer A). The monolayers were washed and lysed with 0.1 N NaOH containing 0.24 mM EDTA, and the lysates were counted. The results are shown as the amount of cell-associated ^125I-leptin. For FIG. 3B, lysates were prepared from CHO-K1 wild type, stable transfectants of vector or LSR α′ subunit, and PLC, and separated on a 10% SDS-polyacrylamide gel under denaturing and reduced conditions. After transfer to nitrocellulose, Western blots were performed using anti-LSR 170 antibody (can also be done with the human equivalent, 93A). […] For FIGS. 3C and 3D, confluent monolayers of stable-transfected cell lines expressing LSR α′ subunit (▪) or vector alone (●) were washed once in PBS and incubated at 37° C. for 2 h with increasing concentrations of ^125I-leptin in Buffer A. The amount of cell-associated (FIG. 3C) and degraded (FIG. 3D) ^125I-leptin was then measured as described herein. […]

Question: “leptin: plasma protein of 16 kDa produced by adipocytes; recombinant human or mouse leptin, species depends on the experiment” was tested. Which “Leptin binding to CHO-K1 cells” value did it give?
Answer: Its value is “remained at levels similar to those seen with the vector alone”.
